Results taken from article PMC4856307, “A Hidden Transhydrogen Activity of a FMN-Bound Diaphorase under Anaerobic Conditions” (PLoS ONE, 2016).

How the values were obtained:
Assay in all cases: purified protein
Format in all cases: biochemical, Geobacillus stearothermophilus
[1] = substrate: NC(=S)c1ccc[n+]([C@@H]2O[C@H](COP(=O)([O-])OP(=O)(O)OC[C@H]3O[C@@H](n4cnc5c(N)ncnc54)[C@H](O)[C@@H]3O)[C@@H](O)[C@H]2O)c1; details: hydride donor NAD(P)H; anaerobic (argon)
[2] = substrate: NC(=S)c1ccc[n+]([C@@H]2O[C@H](COP(=O)(O)OP(=O)(O)OC[C@H]3O[C@@H](n4cnc5c(N)ncnc54)[C@H](OP(=O)(O)O)[C@@H]3O)[C@@H](O)[C@H]2O)c1; details: hydride donor NAD(P)H; anaerobic (argon)
[3] = substrate: NC(=O)C1=CN([C@@H]2O[C@H](COP(=O)(O)OP(=O)(O)OC[C@H]3O[C@@H](n4cnc5c(N)ncnc54)[C@H](O)[C@@H]3O)[C@@H](O)[C@H]2O)C=CC1; details: acceptor thio-NAD+; anaerobic (argon); 1x TBS pH 7.4, room temperature; pH 7.4
[4] = substrate: NC(=O)C1=CN([C@@H]2O[C@H](COP(=O)(O)OP(=O)(O)OC[C@H]3O[C@@H](n4cnc5c(N)ncnc54)[C@H](OP(=O)(O)O)[C@@H]3O)[C@@H](O)[C@H]2O)C=CC1; details: acceptor thio-NAD+; anaerobic (argon); 1x TBS pH 7.4, room temperature; pH 7.4

B1: FMN-bound diaphorase (FMN-DI, DI, GsDI) (Geobacillus stearothermophilus) (protein)
chain: MTKVLYITAHPHDDTQSYSMAVGKAFIETYKQVHPDHEVIHLDLYKEYIPEIDVDVFSGWGKLRSGKSFEELSDEEKAKVGRMNELCEQFISADKYVFVTPMWNFSFPPVLKAYIDAVAVAGKTFKYTEQGPVGLLTDKKALHIQARGGFYSEGPAAEMEMGHRYLSVIMQFFGVPSFEGLFVEGHAAMPEKAEEIKANAIARAKDLAHTF
notes: full length from 636-bp DNA fragment, E. coli BL21 Star (DE3), plasmid pET20b-Gsdi, Ni-resin purified (C-terminal His tag implied by reverse primer)
**Q.** How did the Km [1] turn out when B1 was run?
**A.** 917 µM

**Q.** And the kcat [1]?
**A.** ~2.4 s⁻¹

**Q.** What about the Km [2] of the same protein?
**A.** 4813 µM

**Q.** What about the kcat [2] of the same protein?
**A.** ~0.26 s⁻¹

**Q.** What about the Km [3] of the same protein?
**A.** 24 ± 3 µM

**Q.** What about the kcat [3] of the same protein?
**A.** 1.64 ± 0.05 s⁻¹

**Q.** What about the Km [4] of the same protein?
**A.** 699 ± 49 µM

**Q.** And the kcat [4]?
**A.** 1.93 ± 0.06 s⁻¹
